Measured values published in PMC11381810.

What was measured:
[1] = biological target: syntaxin-1A (1–265) S225C, endogenous cysteines replaced by serine (Rattus norvegicus) (UniProt P32851); test: FRET or BRET; stopped-flow; Alexa Fluor 488 (donor) and Alexa Fluor 647 (acceptor) on syntaxin and SNAP25; one partner fixed at 0.125 μM and the other titrated, or equimolar; 37 °C; 20 mM Hepes, 150 mM KCl, 0.1 mM TCEP, pH ~7.4
[2] = biological target: 2:1 syntaxin:SNAP25 complex (premixed syntaxin-1A (1–265) S225C and SNAP25a (1–206) M49C) (Rattus norvegicus) (UniProt P32851); test: FRET or BRET; stopped-flow; donor-labelled syntaxin and acceptor-labelled SNAP25 at 1:1, unlabeled synaptobrevin titrated in excess; syntaxin and SNAP25 premixed, or SNAP25 and synaptobrevin added together to syntaxin; 37 °C
[3] = biological target: SNAP25a (1–206) M49C, endogenous cysteines replaced by serine (Rattus norvegicus) (UniProt P60881); test: FRET or BRET; stopped-flow; Alexa Fluor 488 (donor) and Alexa Fluor 647 (acceptor) on syntaxin and SNAP25; one partner fixed at 0.125 μM and the other titrated, or equimolar; 37 °C; 20 mM Hepes, 150 mM KCl, 0.1 mM TCEP, pH ~7.4
[4] = biological target: SNAP25a (1–206) M49C, endogenous cysteines replaced by serine (Rattus norvegicus) (UniProt P60881); test: FRET or BRET + SEC; equimolar stopped-flow titration at 37 °C (kobs^2 hyperbolic) and size-exclusion chromatography of the 1:1 mix after overnight incubation at 4 °C (excess of free SNAP25)

SNAP25a (1–206) M49C, endogenous cysteines replaced by serine (from UniProt P60881-2 1-206) (natural protein)
intercept of kobs over [SNAP25]0 [1]: 0.019

synaptobrevin 2 (1–96) S61C (from UniProt P63045 1-96) (domain or fragment)
rate constant of the irreversible step (first, exponential phase) [2]: 7520 M⁻¹ s⁻¹

syntaxin-1A (1–265) S225C, endogenous cysteines replaced by serine (from UniProt P32851 1-265) (domain or fragment)
intercept of kobs over [syntaxin]0 [3]: 0.0032 | stoichiometry N (syntaxin per SNAP25) [4]: 2
